Experimental data taken from patent US20090239794A1, “HCV F PROTEIN AND USES THEREOF” (priority 2004, published 2009).

Molecular target: T1, HLA-A*0201 (Homo sapiens, UniProt P04439, D140Y/D185E/D98H/E176V/E277Q/G131W/G231S/I119V/I121R/I166T/I218V/L300P/L318F/N151K/N90K/P208A/P217A/Q86G/Q94H/R138H/R169H/T345S)
T1 construct: rescue cell-surface expression of CMH-I molecule HLA-A2 in the TAP peptide transporter-deficient cell line T2; endogenous in cells; host or cells: T2 cells (TAP-deficient)
Assay: T2 peptide binding assay
Format: cell-based
Details: for dose-response of MHC class I (HLA-A2) expression at the surface of T2 cells: 30, 100, 200 μg/ml; for A2 binding / Peak fluorescence, % of the levels obtained with NS3 1406-1415 / initial screening of the overlapping peptide panel for HLA-A*0201 expression at the cell surface: T2 cells; for A2 binding: dose-dependent increase of HLA-A2 surface expression; for Peak fluorescence, % of the levels obtained with NS3 1406-1415: MHC class I staining with W6/32; for initial screening of the overlapping peptide panel for HLA-A*0201 expression at the cell surface: 200 μg/ml
Experimental: 37 overlapping peptides (15 amino acid residues with […]) derived from F protein and 5 additional 15-mer peptides corresponding to alternative N-terminal frameshift products of the core protein sequence were synthesized using Fmoc chemistry (SynPep, Dublin, Calif.) based on the sequence of HCV-1a F protein (GenBank accession n° M62321), and were resolubilized in 25% w/v dimethyl sulfoxyde (DMSO) in 1×HBSS. Peptides were diluted to 30, 100, and 200 μg/ml final concentration in DMEM supplemented with 3% w/v FBS, and were incubated with 100,000 serum-depleted (3% FBS for 24 h) T2 cells for 16 h at 37° C. in 5% CO2. T2 cells were then stained (30 min at room temperature) for MHC class I molecules using fluorescein isothiocyanate (FITC)-conjugated W6/32 monoclonal antibody (Sigma, Saint Louis, Mo.) and were analyzed on a FACSCalibur™ flow cytometer (Becton-Dickinson Immunocytometry Systems, La Jolla, Calif.) with live gating based on forward and side scatter.
Interaction of antigenic peptides with class I major histocompatibility complex (MHC) molecules is a prerequisite for their recognition by host cytotoxic T lymphocytes (CTL). The T2 binding assay was therefore performed, in which exogenously-supplied peptides are assessed for their ability to rescue cell-surface expression of CMH-I molecule HLA-A2 in the TAP peptide transporter-deficient cell line T2 [25].
Forty-two overlapping 15-mer peptides corresponding to HCV-1a F protein sequence were tested for interaction with HLA-A*0201 molecules using the T2 peptide binding assay. Specifically, thirty-seven overlapping peptides (15 amino acid residues with 11 residues overlaps) derived from F protein and 5 additional 15-mer peptides corresponding to alternative N-terminal frameshift products of the core protein sequence were synthesized using Fmoc chemistry based on the sequence of HCV-1a ARFP (GenBank accession n° M62321), and peptide binding was assessed as described in Example 1. […] Mean fluorescence intensity following class I MHC staining by the W6/32 monoclonal antibody was used as the readout. The threshold level was set using no peptide controls (hatched lines in FIGS. 4 and 5).

| Sequence | dose-response of MHC class I (HLA-A2) expression at the surface of T2 cells | A2 binding | Peak fluorescence, % of the levels obtained with NS3 1406-1415 [%] | initial screening of the overlapping peptide panel for HLA-A*0201 expression at the cell surface |
| --- | --- | --- | --- | --- |
| AGAPQTPGV (Hepatitis C virus) [F107-115] | dose-dependent capacity to rescue A2 expression | + |  |  |
| ALGLAGAPQT (Hepatitis C virus) [F103-112] | unable to rescue HLA-A2 expression |  |  |  |
| CCRAGALDWVCARRE (Hepatitis C virus) [F37-51] | dose-dependent increase | + | 79.2 | high binders |
| KLVALGINAV [NS3 1406, reference compound] |  | + |  |  |
| PVALGLAGAPQTPGV (Hepatitis C virus) [F101-115] | dose-dependent increase | + | 83.2 | high binders |
| SLVEFTCCRA (Hepatitis C virus) [F31-40] | dose-dependent increase | + |  |  |
| VRSLVEFTCCRAGAL (Hepatitis C virus) [F29-43, 15-mer of HCV-1a F protein] | dose-dependent increase | + | 87.6 | high binders |
